In the supplement of paper PMC9170038:

System: MS2 coat protein
Assay: apparent KD of MS2 coat protein; designed switch direction (-1 OFF switch, 1 ON switch): -1; higher = weaker reporter binding
Summary of the method: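 An oligonucleotide input, 200 uM small-molecule ligand, or no input was present during titration of SNAP-549-labelled MS2 coat protein, which was doubled from 0.7 or 1.5 nM to 3 µM. Designed RNA switches had been transcribed on Illumina chips by stalled E. coli RNA polymerase. Apparent KD per design is the median over clusters of curves fitted to normalised cluster fluorescence.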

[1] = input ligand: microRNA oligo, concentration not stated
[2] = Eterna round: R95, input ligand: microRNA oligo, concentration not stated
[3] = Eterna round: R95, input ligand: FMN 200 uM
[4] = Eterna round: R95, input ligand: none

Sequence | apparent KD of MS2 coat protein (input ligand: FMN 200 uM) [nM] | apparent KD of MS2 coat protein [1] [nM] | apparent KD of MS2 coat protein (input ligand: none) [nM] | apparent KD of MS2 coat protein [2] [nM] | apparent KD of MS2 coat protein [3] [nM] | apparent KD of MS2 coat protein [4] [nM]
UGCUACAUGAGGAUCACCCAUGUAAUGUGGGAUUCGUUAGGACAGGAUAUGAUUGUAUUGUUUUUUCAGAAGGGUCAUUACUUU [JR_ExcNG3_Sub011] (Eterna round: R96, puzzle: Exclusion NG 3) | 74.4 | 34.6 | 52.9 | – | – | –
CCAGUGUAAGGAUAUGUAUACGUCUCUCUGGUAUGAGGGCGGCAGAAGGUACAUGAGGAUCACCCAUGUCAUAU [Eternabot (L2) Solution 94] (Eterna round: R97, puzzle: Exclusion 4) | 37.3 | – | 22.5 | – | – | –
AAUGAUUGAUGAGGAUAUUGUGGUGAAACACGACGAGAAGGCAUAUGUCACAUGAGGAUCACCCAUGUGAGCUUUGUGGAUAUA [Ex NG1 #67] (Eterna round: R96, puzzle: Exclusion NG 1) | – | 18.3 | – | – | – | –
AAGGUGUUAGGAUAUCGAAGGUUGUGGCAGGCGGGAAUUUGCGAGAAGGAACAUGAGGAUCACCCAUGUAAAAU [JR_Exclu4_Sub042] (puzzle: Exclusion 4) | – | – | – | 25 | – | –
UAUAAUACAUAGGAUAUCGAAUAAAUCAUUUAACGAGAAGGAUGAACAUGAGGAUCACCCAUGUGGUAUCAUGG [Mat - Exclusion 6 - JL Mod - D12] (puzzle: Exclusion 6) | – | – | – | 180 | – | –
ACUAGCUUUUUGCAUUUUAGGUUUGUUGCUUCGUAUGUAACAUGAGGAUCACCCAUGUAUUACUGAUGUCGUCGUUU [JR_SV3TOV2_Sub090] (puzzle: Sensor v3, turn-off variant 2) | – | – | – | 16.5 | 18.4 | 18.5
CCCGGGUUUGUGAGGAUAUCGGGCCCGAAAGGGCCCGAGAAGGCACAUGAGGAUCACCCAUGUAAGGGCCCGGG [-42.9, -40.9 kcal, A 23%, 0-5cbis] (Eterna round: R97, puzzle: Brourd's mod of Exclusion 4) | 29.3 | – | 26.1 | – | – | –
GAAUACAAGCAAAGAUCCUACAUGAGGAUCACCCAUGUGCUCGUCUUGUAAAGUACUAUCACGAAAGUGAUAGUACA [Mat - Sensor v3 - turn-off var 1 - Eli Mod - D78] (puzzle: Sensor v3, turn-off variant 1) | – | – | – | 16.9 | 76.7 | 60.1
UUAAAUCAUGUAGGAUAUGCGUGGCGAAGCUAUGCAGAAGGACAUGAGGAUCACCCAUGUUCUAGCGUCUGCGUACAGAUGCUA [Mat - Exclusion NG 1 - Mod of JL - D76] (Eterna round: R96, puzzle: Exclusion NG 1) | 359 | 26.9 | 38.3 | – | – | –
UUAAUACAUGAGGAUCACCCAUGUCAGGAUAUCCGUAUUUCUUAUAUAUAUUUCUAUCGGAGAAGGGACACAUU [lam1] (Eterna round: R97, puzzle: Exclusion 1) | 50.9 | – | 45.4 | – | – | –
UCAUGUUUAGAGGAUAUGAUUACUUUGGAGUAAUCAGAAGGCUAGACAUGAGGAUCACCCAUGUCAUAACAUGA [Exclusion 6 - B - 15:c] (puzzle: Exclusion 6) | – | – | – | 71.5 | 75.5 | 61.3
AUAACUCUAGUCAGGAUAUGCGAGCAAGGAUUAGAGCAGAAGGGACAUGAGGAUCACCCAUGUGGUAGCUGGGU [Indiraa] (puzzle: Brourd's mod of Exclusion 4) | – | – | – | 47.3 | 33.6 | 77.5
AAAAGUUAAGGAUAUACAGGGAGCCGCGGCGUCUGGCCGCAACAUGAGGAUCACCCAUGUAGAAGGUAGCCAAA [Maatmaso] (puzzle: Exclusion 2) | – | – | – | 20.6 | 61.5 | 30.5
AAAGGACGAUUAGGAUAUUCGGUUCAAGGUAAAGAAGAAGGAAUCGUUCCAUACUUAACAUGAGGAUCACCCAUGUGGGUCUAG [Eternabot solution 38] (Eterna round: R96, puzzle: Exclusion NG 1) | – | 25.5 | – | – | – | –
GCCUCACUUGAGGAUCACCCAAGUCAGGAUAUUCACGGAACUACGUAGUAGUUCGGCCGGAGAAGGGAUUCGGG [Qubexe] (Eterna round: R97, puzzle: Exclusion 1) | 64.8 | – | 41.8 | – | – | –
UACUUGUUAGGAUAUCUUACAUUUGCAUCAUAGUAACCUUUGGAGAAGGGACAUGAGGAUCACCCAUGUUUGGU [tap-tap-tappy6] (Eterna round: R97, puzzle: Exclusion 4) | 49.2 | – | 72.6 | – | – | –
ACAAGCUUUGUUGGGUGGUACAUGAGGAUCACCCAUGUUGCGCUCGUCUUGUGGGCCCGGGCCCGCGGCCCGGGCCC [-41.5, -69.6, A 12%] (Eterna round: R97, puzzle: Sensor, turn-off variant 1) | 545 | – | 663 | – | – | –
AAUAGCAAGUAGAUCCUAAACAUGAGGAUCACCCAUGUGCUCGUCUUGUAAAGUACUAUCACGAAAGUGAUAGUACA [Sensor 3, v1 - 57] (puzzle: Sensor v3, turn-off variant 1) | – | – | – | 300 | 151 | 233
AAAAAAAAAGUGAGGAUAUGCUCUACCUCGGUAGAGCAGAAGGCACAUGAGGAUCACCCAUGUGACUCCUCAUU [Omei Ex4B B25] (Eterna round: R97, puzzle: Brourd's mod of Exclusion 4) | 29.6 | – | 19.1 | – | – | –
AAAAGAAGUGUUAGGAUAUGUGGAAGCAGAAAGACACAGAAGGAACAUGAGGAUCACCCAUGUGACCAAAGAAC [Maenonis] (puzzle: Brourd's mod of Exclusion 4) | – | – | – | 15.8 | 27.1 | 15.3
GUCGUGCGGCUGUGCUGUACGAGUACAUGAGGAUCACCCAUGUAGGAUAUGGUUCGUUUUGCGUGCUAGAAGGGCGUGCGUUUU [Excl-NG3-LRO17] (Eterna round: R96, puzzle: Exclusion NG 3) | 17.9 | 17 | 21.4 | – | – | –
GCAGUUCGAGUUAGGAUAUGAUGUUAAUUCGGAUAUCAGAAGGAACUUGAGGAUCACCCAAGUAUAGAUGUUGC [JR_BMEx4_Sub060] (Eterna round: R97, puzzle: Brourd's mod of Exclusion 4) | 29.6 | – | 18.6 | – | – | –
CGUAGCAAUGUGAGGAUAUCUAGAGCUUCGGCUCUAGAGAAGGCACAUGAGGAUCACCCAUGUGAUUAGCUACG [BmEx4/9-B1] (Eterna round: R97, puzzle: Brourd's mod of Exclusion 4) | 989 | – | 347 | – | – | –
CUUAUGUGAGGAUAUCAGUAGUAAUACAAUAGUAUUACUACUGAGAAGGCACAUGAGGAUCACCCAUGUUCUUC [Exclusion 4 - Mod Omei Ex4 344 mod v.2] (puzzle: Exclusion 4) | – | – | – | 103 | – | –
ACAAGCUUUUUGUUCGUCUUAUACACUCCUAAUAAGAAAACAUGAGGAUCACCCAUGUAAGAAAUAAGAACUCAUGU [Sesor Array 1 - Jieux - Sensor v3, turn-off variant 2] (puzzle: Sensor v3, turn-off variant 2) | – | – | – | 303 | 225 | 213
